Patent publication US20020068273A1 (published 2002)
Where no end group is shown, it is not given here.

Legend:
biotin-Vpr52-96 (HIV-1) = biotin-Vpr52-96 (HIV-1) (UniProt P69726); experiment: SPR, Langmuir isotherm, ANT104-116 on biotinylated Vpr52-96
[1] = biological target: T1, adenine nucleotide translocator (ANT), purified native protein (rat, UniProt Q05962 2-298); experiment: SPR, ANT over immobilized Vpr52-96
T1 construct: mature; Used detergent-solubilized (SPR), reconstituted in liposomes or planar bilayers, or inside mitochondria (pull-down); also called adenine nucleotide translocase; ADP/ATP carrier
T1 sequence: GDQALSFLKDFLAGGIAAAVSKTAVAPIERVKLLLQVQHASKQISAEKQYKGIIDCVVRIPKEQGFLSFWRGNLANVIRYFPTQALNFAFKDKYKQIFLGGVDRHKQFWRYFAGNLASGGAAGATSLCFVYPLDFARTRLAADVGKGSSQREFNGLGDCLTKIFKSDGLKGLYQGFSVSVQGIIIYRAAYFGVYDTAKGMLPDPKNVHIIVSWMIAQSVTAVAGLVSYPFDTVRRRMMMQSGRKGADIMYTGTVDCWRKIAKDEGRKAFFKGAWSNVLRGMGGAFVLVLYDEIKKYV

[2] = biological target: T1, adenine nucleotide translocator (ANT), …; experiment: not stated (summary of the inventors' findings)

ANT-2-derived peptide ANT104-116 was tested, and the Kd (biotin-Vpr52-96 (HIV-1)) was 35000 nM.

B1: biotin-Vpr52-96 (peptide)
peptide: DTWAGVEAIIRILQQLLFIHFRIGCRHSRIGVTRQRRARNGASRS
modifications: also: biotin, position not given here
notes: range 52-96; Synthetic biotinylated peptide, immobilized for SPR and used as bait in the avidin-agarose pull-down; also called biotinylated Vpr52-96; immobilized Vpr C-terminal moiety
For B1, the Kd [1] was 9.7 nM.

B2: Vpr protein of HIV-1 (14 Kd; 96 aa) (other)
chain: MEQAPEDQGPQREPHNEWTLELLEELKNEAVRHFPRIWLHGLGQHIYETYGDTWAGVEAIIRILQQLLFIHFRIGCRHSRIGVTRQRRARNGASRS
notes: also called HIV-1 Viral protein R
B2 gave a Kd [2] of 1 nM.
